Test [1] deals with T1, GST fusion protein containing MG8 (Gln26 to Pro217) of human Mp1 (human, UniProt P40238 26-217).
T1 construct: range 26-217; not shown: glutathione S-transferase (GST) encoded by vector pGEX-4T-3 (Amersham Biosciences)
T1 sequence (looked up): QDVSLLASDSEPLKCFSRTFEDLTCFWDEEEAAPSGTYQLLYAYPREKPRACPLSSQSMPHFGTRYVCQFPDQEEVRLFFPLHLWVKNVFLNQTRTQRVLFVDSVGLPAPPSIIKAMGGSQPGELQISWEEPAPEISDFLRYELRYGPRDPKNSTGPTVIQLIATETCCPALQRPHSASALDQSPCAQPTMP
Briefly: Western blotting of GST fusion proteins. How it is done: (§1) Since the anti-human Mp1 antibody VB22B can be used for Western blotting, a GST-fusion protein containing a partial sequence of human Mp1 was constructed for VB22B epitope analysis. MG1 (Gln26 to Trp491) and MG2 (Gln26 to Leu274) regions were each amplified by PCR, and cloned into pGEX-4T-3 (Amersham Biosciences) to be expressed as GST fusion proteins. The resulting plasmid DNAs were transformed into DH5α to give transformants. A final concentration of 1 mM IPTG was added to the transformants in their logarithmic growth phase to induce the expression of GST fusion proteins. The bacterial cells were harvested after two hours of incubation. The cells were lysed by sonication. The lysates were centrifuged in XL-80 Ultracentrifuge (Beckman, Rotor 70.1Ti) at 35,000 rpm for 30 min. The culture supernatants were removed, and then the fusion proteins were purified using GST Purification Modules (Amersham Biosciences). The samples were separated by 10%-SDS-PAGE, and then transferred onto a PVDF membrane. The membrane was analyzed by the murine antibody VB22B in Western blotting.
(§2) Then, GST fusion proteins containing the respective regions of human Mp1: MG3 (Gln26 to Ala189), MG4 (Gln26 to Pro106), MG5 (Gln26 to Glu259), and MG6 (Gln26 to Gly245) were prepared and analyzed by Western blotting using the same procedure described above. […] In addition, GST was fused with MG7 (Gln26 to Ala231) and MG8 (Gln26 to Pro217) to prepare GST fusion proteins.
A general note: A western blot detects proteins with antibodies after separation by electrophoresis.

Test [2] addresses T2, GST fusion protein containing MG3 (Gln26 to Ala189) of human Mp1 (human, UniProt P40238 26-189).
T2 construct: range 26-189; not shown: glutathione S-transferase (GST) encoded by vector pGEX-4T-3 (Amersham Biosciences)
T2 sequence (looked up): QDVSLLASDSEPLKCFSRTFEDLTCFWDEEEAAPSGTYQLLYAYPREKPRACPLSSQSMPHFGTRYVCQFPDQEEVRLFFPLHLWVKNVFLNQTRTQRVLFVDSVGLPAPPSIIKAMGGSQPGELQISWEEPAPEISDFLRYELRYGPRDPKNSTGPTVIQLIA
The experiment in a line: Western blotting of GST fusion proteins. On the procedure:
as §1, §2

For test [3], the target named is T3, GST fusion protein containing MG4 (Gln26 to Pro106) of human Mp1 (human, UniProt P40238 26-106).
T3 construct: range 26-106; not shown: glutathione S-transferase (GST) encoded by vector pGEX-4T-3 (Amersham Biosciences)
T3 sequence (looked up): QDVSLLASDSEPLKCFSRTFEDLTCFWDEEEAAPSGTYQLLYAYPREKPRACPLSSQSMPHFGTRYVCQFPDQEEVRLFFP
The experiment in a line: Western blotting of GST fusion proteins. On the procedure:
as §1, §2

Test [4] deals with T4, cynomolgus monkey Mp1 expressed on CHO cells (CHO-monkey Mp1) (cynomolgus monkey, UniProt P40238 26-635 (human entry)).
T4 construct: also called monkey Mp1-expressing CHO cell line
T4 chain: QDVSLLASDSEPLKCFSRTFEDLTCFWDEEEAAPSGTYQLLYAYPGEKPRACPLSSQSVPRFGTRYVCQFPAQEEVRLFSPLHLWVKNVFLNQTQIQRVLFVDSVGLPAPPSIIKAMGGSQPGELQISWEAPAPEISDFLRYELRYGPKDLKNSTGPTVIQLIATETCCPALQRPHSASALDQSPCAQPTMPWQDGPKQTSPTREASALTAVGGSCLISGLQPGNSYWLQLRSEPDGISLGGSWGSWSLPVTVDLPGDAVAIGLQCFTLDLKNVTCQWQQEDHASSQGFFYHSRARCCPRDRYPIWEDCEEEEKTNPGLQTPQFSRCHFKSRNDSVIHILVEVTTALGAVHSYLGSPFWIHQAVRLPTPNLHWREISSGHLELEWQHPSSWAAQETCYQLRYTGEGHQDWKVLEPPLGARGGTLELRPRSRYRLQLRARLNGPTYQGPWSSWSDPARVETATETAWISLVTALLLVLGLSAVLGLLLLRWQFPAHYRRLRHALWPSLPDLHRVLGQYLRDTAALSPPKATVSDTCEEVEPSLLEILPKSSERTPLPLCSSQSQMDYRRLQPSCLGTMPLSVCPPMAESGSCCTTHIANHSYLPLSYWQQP
The experiment in a line: flow cytometry on CHO cells expressing Mp1. On the technique in general: In flow cytometry, cells or beads pass a laser one at a time.

For test [5], the target named is T5, mouse Mp1 expressed on CHO cells (CHO-mouse Mp1) (mouse, UniProt Q08351 26-625).
T5 construct: whole, on cells; also called mouse Mp1-expressing CHO cell line
T5 sequence (looked up): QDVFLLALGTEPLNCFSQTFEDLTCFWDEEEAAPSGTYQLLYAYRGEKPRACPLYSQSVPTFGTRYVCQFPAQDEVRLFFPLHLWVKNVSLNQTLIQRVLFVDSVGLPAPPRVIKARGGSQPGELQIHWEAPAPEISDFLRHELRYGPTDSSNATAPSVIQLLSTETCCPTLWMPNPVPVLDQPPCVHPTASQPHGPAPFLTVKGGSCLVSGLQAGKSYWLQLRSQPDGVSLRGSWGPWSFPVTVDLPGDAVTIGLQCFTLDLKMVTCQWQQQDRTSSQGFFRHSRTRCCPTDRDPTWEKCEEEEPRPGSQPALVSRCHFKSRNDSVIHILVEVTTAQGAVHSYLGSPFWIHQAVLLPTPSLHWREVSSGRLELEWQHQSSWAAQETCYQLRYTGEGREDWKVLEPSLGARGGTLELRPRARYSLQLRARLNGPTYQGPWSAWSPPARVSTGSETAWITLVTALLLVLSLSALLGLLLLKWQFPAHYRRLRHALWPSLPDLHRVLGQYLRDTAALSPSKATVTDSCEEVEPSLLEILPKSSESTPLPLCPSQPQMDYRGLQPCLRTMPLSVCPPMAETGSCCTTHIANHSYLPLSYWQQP
Briefly: flow cytometry on CHO cells expressing Mp1.

The target in test [6] is T6, human Mp1-IgG Fc fusion protein (human, UniProt P40238 26-491).
T6 construct: range 26-491; Expressed in CHO-DG44 with a 19-amino acid signal peptide from a human IgG H chain variable region, left out here; also called hMp1-Fc; hMPL-Fc; not shown: Fc region of human IgG-gamma1 (a region downstream of Asp 216)
T6 sequence: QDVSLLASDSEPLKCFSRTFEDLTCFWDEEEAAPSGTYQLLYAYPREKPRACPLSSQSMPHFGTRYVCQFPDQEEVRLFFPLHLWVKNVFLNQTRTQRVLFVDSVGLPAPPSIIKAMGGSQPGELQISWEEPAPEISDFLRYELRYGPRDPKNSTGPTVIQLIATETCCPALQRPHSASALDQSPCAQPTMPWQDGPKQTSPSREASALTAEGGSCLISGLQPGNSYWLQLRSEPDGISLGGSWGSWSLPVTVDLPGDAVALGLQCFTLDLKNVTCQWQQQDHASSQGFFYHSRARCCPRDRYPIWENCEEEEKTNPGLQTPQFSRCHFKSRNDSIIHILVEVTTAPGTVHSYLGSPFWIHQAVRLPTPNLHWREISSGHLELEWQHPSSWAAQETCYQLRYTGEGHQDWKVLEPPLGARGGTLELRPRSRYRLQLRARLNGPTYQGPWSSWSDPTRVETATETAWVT
The experiment in a line: SPR (Biacore 2000), hMp1-Fc amine-coupled to CM5 chip, VB22B IgG injected at 1.25 to 20 ug/mL. On the procedure: Since the anti-human Mp1 antibody VB22B binds to soluble recombinant Mp1, kinetic analyses of the antigen-antibody reaction between VB22B IgG and human Mp1-IgG Fc fusion protein were carried out as described in Example 1.4. The Sensor Chip CM5 (Biacore) was placed in Biacore 2000 (Biacore), and human Mp1-IgG Fc fusion protein was immobilized onto the chip by amine-coupling methods. Then, 1.25 to 20 μg/mL of VB22B IgG solution was prepared using HBS-EP Buffer (Biacore), and injected over the chip surface for 2 min to reveal the binding region. Then, HBS-EP Buffer was injected over the chip surface for 2 min to reveal the dissociation region. VB22B IgG bound to the human Mp1-IgG Fc fusion protein on the sensor chip was removed by injecting 10 mM NaOH over the sensor chip for 15 sec, and the chip was recovered. HBS-EP Buffer was used as the running buffer, and the flow rate was 20 μL/min. Using the BIAevaluation Version 3.1 (Biacore) software, the reaction rate constant at each concentration was calculated from the sensorgrams.
For orientation: SPR reads the build-up and loss of mass on a sensor chip optically.

Test [7] has as its target T7, human Mp1 expressed on CHO cells (CHO-human Mp1) (human, UniProt P40238 26-635).
T7 construct: whole, on cells; also called human Mp1-expressing CHO cell line
T7 sequence (looked up): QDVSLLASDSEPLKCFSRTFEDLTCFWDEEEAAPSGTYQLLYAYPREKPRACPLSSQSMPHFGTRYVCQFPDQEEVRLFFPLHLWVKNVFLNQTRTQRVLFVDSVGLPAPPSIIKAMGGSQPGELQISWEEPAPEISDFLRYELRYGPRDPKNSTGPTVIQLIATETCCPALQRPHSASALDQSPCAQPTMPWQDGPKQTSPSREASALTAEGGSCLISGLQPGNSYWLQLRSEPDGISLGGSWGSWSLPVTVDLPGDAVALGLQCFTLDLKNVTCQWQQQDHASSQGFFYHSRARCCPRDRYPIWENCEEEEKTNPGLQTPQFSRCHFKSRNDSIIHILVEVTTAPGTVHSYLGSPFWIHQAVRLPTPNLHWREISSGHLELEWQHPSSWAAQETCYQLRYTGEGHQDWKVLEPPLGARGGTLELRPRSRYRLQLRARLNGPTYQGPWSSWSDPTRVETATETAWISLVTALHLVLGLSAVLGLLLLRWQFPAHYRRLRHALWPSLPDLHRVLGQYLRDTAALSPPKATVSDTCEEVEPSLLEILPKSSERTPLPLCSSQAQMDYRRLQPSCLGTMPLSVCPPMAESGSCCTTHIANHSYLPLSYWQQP
The experiment in a line: flow cytometry on CHO cells expressing Mp1, detection with anti-FLAG M2 and FITC anti-mouse IgG. On the procedure:
(§3) CHO-human Mp1, CHO-monkey Mp1, and CHO-mouse Mp1 cells were recovered and suspended in FACS buffer (1% FBS/PBS) to a final concentration of 1×10⁶ cells/mL. Cell suspensions were aliquoted at 100-μL/well into the Multiscreen-HV Filter Plates (Millipore). After centrifugation, the supernatant was removed. An appropriate concentration of diabody or sc(Fv)2 was added into each well and incubated on ice for 30 min. The cells were washed once with 200 μL of FACS buffer, and incubated on ice for 30 min following the addition of 10 μg/mL ANTI-FLAG® M2 Monoclonal Antibody (Sigma-Aldrich). The cells were then washed once with 200 μL of FACS buffer, and a 100×-diluted FITC-labeled anti-mouse IgG antibody (Beckman Coulter) was added to the plate. The plate was incubated on ice for 30 min. After centrifugation, the supernatant was removed. The cells were suspended in 400 μL of FACS Buffer, and then analyzed by flow cytometry using EPICS ELITE ESP (Beckman Coulter). An analysis gate was set on the forward and side scatters of a histogram to include viable cell populations.
(§4) The binding activity of the purified VB22B sc(Fv)2 to various Mp1 molecules expressed in CHO cells was determined.

For test [8], the target named is T4, cynomolgus monkey Mp1 expressed on CHO …. The description is as above. How it is done:
as §3, §4

Broadly, the Kd is the concentration at which binding is half-saturated.

B1: anti-human Mp1 antibody VB22B (VB22B IgG) (antibody, V domains shown)
VH: QVQLQQSGPELVKPGASVKISCKASGYAFTNSWMNWVKQRPGKGLEWIGRIYPGDGETIYNGKFRVKATLTADKSSSTAYMDISSLTSEDSAVYFCARGYDDYSFAYWGQGTLVTVSA
VL: DIVMTQAAPSIPVTPGESVSISCRSSKSLLHSNGNTYLYWFLQRPGQSPQLLIYRMSNLASGVPDRFSGSGSGTAFTLRISRVEAEDVGVYYCMQHIEYPFTFGSGTKLEIK
notes: Mouse monoclonal IgG purified from hybridoma supernatant; They were cloned with primers complementary to the mouse IgG2b and kappa constant regions; also called murine antibody VB22B
Turning to B1, the binding result in test [1] is given as “no binding”; in test [2], “no binding”; in test [3], “no binding”; in test [4] it was “binds”; in test [5], “no binding”. Also, the Kd in test [6] was 1.67 nM.

B2: Murine VB22B sc(Fv)2 (scFv)
scFv: QVQLQQSGPELVKPGASVKISCKASGYAFTNSWMNWVKQRPGKGLEWIGRIYPGDGETIYNGKFRVKATLTADKSSSTAYMDISSLTSEDSAVYFCARGYDDYSFAYWGQGTLVTVSAGGGGSGGGGSGGGGSDIVMTQAAPSIPVTPGESVSISCRSSKSLLHSNGNTYLYWFLQRPGQSPQLLIYRMSNLASGVPDRFSGSGSGTAFTLRISRVEAEDVGVYYCMQHIEYPFTFGSGTKLEIKGGGGSGGGGSGGGGSQVQLQQSGPELVKPGASVKISCKASGYAFTNSWMNWVKQRPGKGLEWIGRIYPGDGETIYNGKFRVKATLTADKSSSTAYMDISSLTSEDSAVYFCARGYDDYSFAYWGQGTLVTVSAGGGGSGGGGSGGGGSDIVMTQAAPSIPVTPGESVSISCRSSKSLLHSNGNTYLYWFLQRPGQSPQLLIYRMSNLASGVPDRFSGSGSGTAFTLRISRVEAEDVGVYYCMQHIEYPFTFGSGTKLEIK
notes: Single chain sc(Fv)2, VH-(Gly4Ser)3-VL-(Gly4Ser)3-VH-(Gly4Ser)3-VL, with a FLAG tag (detected with anti-FLAG M2); also called mVB22B
Turning to B2, the binding result in test [5] was “no binding”; in test [7], “binds”; in test [8], “binds”.

The values are drawn from patent US20090117097A1 (Chugai, published 2009).
